From article PMC11303406

Legend:
[1] = tested on: SlSWIBb-R6A (Solanum lycopersicum); experiment: MST; conditions: MST: 50 mM Tris-HCl pH 8.0, 150 mM NaCl, 0.05% Tween-20, 25 C
[2] = tested on: SlSWIBb-L44A (Solanum lycopersicum); experiment: MST; conditions: MST: 50 mM Tris-HCl pH 8.0, 150 mM NaCl, 0.05% Tween-20, 25 C
[3] = tested on: SlSWIBb (Solanum lycopersicum); experiment: MST; conditions: MST: 50 mM Tris-HCl pH 8.0, 150 mM NaCl, 0.05% Tween-20, 25 C
[4] = tested on: SlSWIBb-K86A (Solanum lycopersicum); experiment: MST; conditions: MST: 50 mM Tris-HCl pH 8.0, 150 mM NaCl, 0.05% Tween-20, 25 C
SlSWIBa = SlSWIBa (Solanum lycopersicum, UniProt A0A3Q7HR54 1-124); experiment: EMSA
SlGATA29 = molecular target: T1, SlGATA29 (Solanum lycopersicum, UniProt UPI0002BCBC7B 34-326); experiment: EMSA
T1 sequence: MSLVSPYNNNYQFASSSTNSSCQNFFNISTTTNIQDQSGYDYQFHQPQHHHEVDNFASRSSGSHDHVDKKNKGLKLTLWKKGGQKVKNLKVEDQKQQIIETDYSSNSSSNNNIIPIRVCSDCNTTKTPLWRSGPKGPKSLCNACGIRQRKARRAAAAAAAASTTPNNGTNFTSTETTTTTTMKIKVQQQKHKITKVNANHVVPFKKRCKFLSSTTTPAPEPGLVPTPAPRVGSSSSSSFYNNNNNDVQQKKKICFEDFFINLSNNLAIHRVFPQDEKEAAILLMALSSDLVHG

SlSWIBa-allmut = SlSWIBa-allmut (Solanum lycopersicum, UniProt A0A3Q7HR54 1-124, R6A;L46A;K88A); experiment: MST

GAATATATGAACATATTAAAAGTGACATTATAAGAAATGATAAAATTCAAAATTAAGGTG (double strand) [60bp InDel, Cy5]
Kd [1]: 40 nM | Kd [2]: 47 nM | Kd [3]: 35 nM | Kd [4]: 42 nM

B1: 30bpSWIB-mu4 (dsDNA)
DNA 1: TAAGAAATGATAAAATTCAAAATTAAGGTG
DNA 2: CACCTTAATTTTGAATTTTATCATTTCTTA
binding result (SlSWIBa): no binding

B2: probe-60bp (dsDNA)
DNA 1: GAATATATGAACATATTAAAAGTGACATTATAAGAAATGATAAAATTCAAAATTAAGGTG
DNA 2: CACCTTAATTTTGAATTTTATCATTTCTTATAATGTCACTTTTAATATGTTCATATATTC
binding result (SlGATA29): binds

B3: 60bp InDel, Cy5 (dsDNA)
DNA 1: GAATATATGAACATATTAAAAGTGACATTATAAGAAATGATAAAATTCAAAATTAAGGTG
DNA 2: CACCTTAATTTTGAATTTTATCATTTCTTATAATGTCACTTTTAATATGTTCATATATTC
binding result (SlSWIBa-allmut): no binding
